In patent US20250320281A1:

Assays:
Test in all cases: cell-based or functional assay
[1] = target: HIV-1 Env of isolate 92BR020 (pseudovirus) (HIV-1)
[2] = target: HIV-1 92BR020 Env (HIV-1)
HIV-1 APV13 Env (HIV-1) = target: HIV-1 APV13 Env (HIV-1)
HIV-1 APV6 Env (HIV-1) = target: HIV-1 APV6 Env (HIV-1)
[3] = target: HIV-1 MGRM-AG-005 Env (HIV-1)
[4] = target: HIV-1 MGRM-D-001 Env (HIV-1)
[5] = target: HIV-1 92UG005 Env (pseudovirus) (HIV-1 isolate 92UG005 (clade D))
[6] = target: HIV-1 CMU02 Env (pseudovirus) (HIV-1 isolate CMU02 (clade AE))
[7] = target: HIV-1 MGRM-AG-005 Env (pseudovirus) (HIV-1 isolate MGRM-AG-005 (clade AG))
[8] = target: HIV-1 MGRM-C-026 Env (pseudovirus) (HIV-1 isolate MGRM-C-026 (clade C))
[9] = target: HIV-1 MGRM-C-027 Env (pseudovirus) (HIV-1 isolate MGRM-C-027 (clade C))
[10] = target: HIV-1 MGRM-C-028 Env (pseudovirus) (HIV-1 isolate MGRM-C-028 (clade C))
[11] = target: HIV-1 NL43 Env (pseudovirus) (HIV-1 isolate NL43 (clade B))
[12] = target: HIV-1 92UG024 envelope glycoprotein (Env) on pseudovirus (HIV-1 isolate 92UG024 (clade D))
[13] = target: HIV-1 93IN905 envelope glycoprotein (Env) on pseudovirus (HIV-1 isolate 93IN905 (clade C))
[14] = target: HIV-1 MGRM-D-018 envelope glycoprotein (Env) on pseudovirus (HIV-1 isolate MGRM-D-018 (clade D))
[15] = target: HIV-1 Env of isolate MG RM-D-024 (HIV-1)
[16] = target: HIV-1 Env of isolate MG RM-D-026 (HIV-1)
[17] = target: HIV-1 Env of isolate MG RM-D-028 (HIV-1)
[18] = target: HIV-1 Env of isolate MG RM-D-029 (HIV-1)
[19] = target: HIV-1 Env of pseudovirus MGRM-AE-008 (subtype AE) (HIV-1)
[20] = target: HIV-1 Env of pseudovirus MGRM-AG-001 (subtype AG) (HIV-1)
[21] = target: HIV-1 Env of pseudovirus MGRM-AG-005 (subtype AG) (HIV-1)
[22] = target: HIV-1 Env of pseudovirus MGRM-AG-008 (subtype AG) (HIV-1)
[23] = target: HIV-1 Env of pseudovirus MGRM-AG-009 (subtype AG) (HIV-1)
[24] = target: HIV-1 Env of pseudovirus MGRM-AG-013 (subtype AG) (HIV-1)
[25] = target: HIV-1 Env of isolate DU422 (clade C pseudovirus) (HIV-1)
[26] = target: HIV-1 Env of isolate PVO.4 (clade B pseudovirus) (HIV-1)
[27] = target: HIV-1 Env of isolate REJ04541 (clade B pseudovirus) (HIV-1)
[28] = target: HIV-1 Env of isolate TR0.11 (clade B pseudovirus) (HIV-1)
[29] = target: HIV-1 Env of isolate ZM214 (clade C pseudovirus) (HIV-1)
[30] = target: HIV-1 Env of isolate JRFL (HIV-1)
[31] = target: HIV-1 Env of isolate MGRM-Chronic-B-020 (HIV-1)
[32] = target: HIV-1 Env of isolate MGRM-F1-015 (clade F), on pseudovirus (HIV-1)
[33] = target: HIV-1 Env of isolate MGRM-F1-021 (clade F pseudovirus) (HIV-1)
[34] = target: HIV-1 Env of pseudovirus MGRM-A-001 (subtype A) (HIV-1)

Chain of 1443_C16 (PG16) (TCN-116) (antibody) (VH): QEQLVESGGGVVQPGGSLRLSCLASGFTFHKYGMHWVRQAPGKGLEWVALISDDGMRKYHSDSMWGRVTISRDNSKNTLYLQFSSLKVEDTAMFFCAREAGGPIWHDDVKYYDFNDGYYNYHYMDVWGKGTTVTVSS
Chain of 1443_C16 (PG16) (TCN-116) (antibody) (VL): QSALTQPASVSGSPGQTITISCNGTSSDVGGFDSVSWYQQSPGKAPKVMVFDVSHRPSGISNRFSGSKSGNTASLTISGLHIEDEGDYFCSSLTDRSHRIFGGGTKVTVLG

## 4858_P08 (PGT-123) (antibody)
[1]
  Primary Neutralization Index (B cell culture supernatant): 2.8

## 4877_D15 (PGT-122) (antibody)
[2]
  Neutralization by PGT-122, IC50: 0.0337 µg/mL
  Neutralization by PGT-122, IC80: 0.0929 µg/mL
  Neutralization by PGT-122, IC90: 0.168 µg/mL
  Neutralization by PGT-122, IC95: 0.289 µg/mL
HIV-1 APV13 Env (HIV-1)
  Neutralization by PGT-122, IC50: 0.992 µg/mL
  Neutralization by PGT-122, IC80: 4.14 µg/mL
  Neutralization by PGT-122, IC90: 8.6 µg/mL
  Neutralization by PGT-122, IC95: > 10 µg/mL
HIV-1 APV6 Env (HIV-1)
  Neutralization by PGT-122, IC50: 0.0851 µg/mL
  Neutralization by PGT-122, IC80: 0.351 µg/mL
  Neutralization by PGT-122, IC90: 0.779 µg/mL
  Neutralization by PGT-122, IC95: 1.55 µg/mL
[3]
  Neutralization by PGT-122, IC50: > 10 µg/mL
  Neutralization by PGT-122, IC80: > 10 µg/mL
  Neutralization by PGT-122, IC90: > 10 µg/mL
  Neutralization by PGT-122, IC95: > 10 µg/mL
[4]
  Neutralization by PGT-122, IC50: 0.867 µg/mL
  Neutralization by PGT-122, IC80: 4.48 µg/mL
  Neutralization by PGT-122, IC90: > 10 µg/mL
  Neutralization by PGT-122, IC95: > 10 µg/mL

## 5123_A06 (PGT-125) (antibody)
[5]
  Neutralization by PGT-125, IC50: > 10 µg/mL
  Neutralization by PGT-125, IC80: > 10 µg/mL
  Neutralization by PGT-125, IC90: > 10 µg/mL
  Neutralization by PGT-125, IC95: > 10 µg/mL
[6]
  Neutralization by PGT-125, IC50: > 10 µg/mL
  Neutralization by PGT-125, IC80: > 10 µg/mL
  Neutralization by PGT-125, IC90: > 10 µg/mL
  Neutralization by PGT-125, IC95: > 10 µg/mL
[7]
  Neutralization by PGT-125, IC50: > 10 µg/mL
  Neutralization by PGT-125, IC80: > 10 µg/mL
  Neutralization by PGT-125, IC90: > 10 µg/mL
  Neutralization by PGT-125, IC95: > 10 µg/mL
[8]
  Neutralization by PGT-125, IC50: 0.0106 µg/mL
  Neutralization by PGT-125, IC80: 0.035 µg/mL
  Neutralization by PGT-125, IC90: 0.0705 µg/mL
  Neutralization by PGT-125, IC95: 0.134 µg/mL
[9]
  Neutralization by PGT-125, IC50: > 10 µg/mL
  Neutralization by PGT-125, IC80: > 10 µg/mL
  Neutralization by PGT-125, IC90: > 10 µg/mL
  Neutralization by PGT-125, IC95: > 10 µg/mL
[10]
  Neutralization by PGT-125, IC50: 5.78 µg/mL
  Neutralization by PGT-125, IC80: > 10 µg/mL
  Neutralization by PGT-125, IC90: > 10 µg/mL
  Neutralization by PGT-125, IC95: > 10 µg/mL
[11]
  Neutralization by PGT-125, IC50: > 10 µg/mL
  Neutralization by PGT-125, IC80: > 10 µg/mL
  Neutralization by PGT-125, IC90: > 10 µg/mL
  Neutralization by PGT-125, IC95: > 10 µg/mL

## 1496_C09 (PG9) (TCN-109) (antibody)
[12]
  neutralization IC50: 1.91 µg/mL
[13]
  neutralization IC50: 0.048 µg/mL
  neutralization IC80: 0.308 µg/mL
  neutralization IC90: 0.981 µg/mL
  neutralization IC95: 3.31 µg/mL
[14]
  neutralization IC50: 0.0444 µg/mL
  neutralization IC80: 0.18 µg/mL
  neutralization IC90: 0.43 µg/mL
  neutralization IC95: 1.05 µg/mL

## VRC01 (antibody)
[15]
  IC50: 0.366 µg/mL
[16]
  IC50: 0.435 µg/mL
[17]
  IC50: 0.377 µg/mL
[18]
  IC50: 3.22 µg/mL
[19]
  IC50, pseudovirus neutralization: 1.72 µg/mL
[20]
  IC50, pseudovirus neutralization: 0.228 µg/mL
[21]
  IC50, pseudovirus neutralization: 0.091 µg/mL
[22]
  IC50, pseudovirus neutralization: 0.124 µg/mL
[23]
  IC50, pseudovirus neutralization: > 50 µg/mL
[24]
  IC50, pseudovirus neutralization: 0.197 µg/mL

## 1443_C16 (PG16) (TCN-116) (antibody)
[25]
  IC50 (neutralization, TZM-bl pseudovirus assay): 0.59 µg/mL
[26]
  IC50 (neutralization, TZM-bl pseudovirus assay): 12.3 µg/mL
[27]
  IC50 (neutralization, TZM-bl pseudovirus assay): < 0.01 µg/mL
[28]
  IC50 (neutralization, TZM-bl pseudovirus assay): 3.61 µg/mL
[29]
  IC50 (neutralization, TZM-bl pseudovirus assay): > 25 µg/mL

## PGV04 (antibody)
[30]
  IC50 (µg/mL), pseudovirus neutralization: 0.032 µg/mL
[31]
  IC50 (µg/mL), pseudovirus neutralization: 1.26 µg/mL
[32]
  IC50 (µg/mL), pseudovirus neutralization: 0.179 µg/mL
[33]
  IC50 (µg/mL), pseudovirus neutralization: 0.031 µg/mL
[34]
  IC50, pseudovirus neutralization: 6.78 µg/mL
